Laboratory results published in article PMC8409056.

Tests used:
[1] = molecular target: SARS-CoV-2 spike RBD-Fc fusion (SARS-CoV-2, UniProt P0DTC2 319-541); test: ELISA on aptamer-coated gold slide
[2] = molecular target: SARS-CoV-2 spike S1 subunit (SARS-CoV-2, UniProt P0DTC2 16-685)

B1: CoV-2-RBD-4C aptamer (Aptamer-4C) (structured_DNA)
DNA: ATCCAGAGTGACGCAGCATTTCATCGGGTCCAAAAGGGGCTGCTCGGGATTGCGGATATGGACACGT
modifications: 5'-thiol, immobilized on gold
B1: binds [1]; binds [2].
